Experimental data: patent US7354588B1, “Functional derivatives of ICAM-1 with altered ability to bind LFA-1 or HRV” (Dana Farber Cancer Institute, priority 1987, dated 2008)
Substitutions are numbered along the chain they refer to. “Also recorded” adds a separate entry of the source.

B1: V4/G: ICAM-1 mutant, replacement of V4 with G (protein, UniProt P05362 28-532, looked up, variant V4G)
Intercellular adhesion …: QTSGSPSKVILPRGGSVLVTCSTSCDQPKLLGIETPLPKKELLLPGNNRKVYELSNVQEDSQPMCYSNCPDGQSTAKTFLTVYWTPERVELAPLPSWQPVGKNLTLRCQVEGGAPRANLTVVLLRGEKELKREPAVGEPAEVTTTVLVRRDHHGANFSCRTELDLRPQGLELFENTSAPYQLQTFVLPATPPQLVSPRVLEVDTQGTVVCSLDGLFPVSEAQVHLALGDQRLNPTVTYGNDSFSAKASVSVTAEDEGTQRLTCAVILGNQSQETLQTVTIYSFPAPNVILTKPEVSEGTEVTVKCEAHPRAKVTLNGVPAQPLGPRAQLLLKATPEDNGRSFSCSATLEVAGQLIHKNQTRELRVLYGPRLDERDCPGNWTWPENSQQTPMCQAWGNPLPELKCLKDGTFPLPIGESVTVTRDLEGTYLCRARSTQGEVTRKVTVNVLSPRYEIVIITVVAAAVIMGTAGLSTYLYNRQRKIKKYRLQQAQKGTPMKPNTQATPP
B2: R13/E: ICAM-1 mutant, replacement of R13 with E (protein, UniProt P05362 28-532, looked up, variant R13E)
Intercellular adhesion …: B1 Intercellular adhesion … with G4V, R13E
B3: Q73/T: ICAM-1 substitution mutant, Q73 to T (protein, UniProt P05362 28-532, looked up, variant Q73T)
Intercellular adhesion …: B1 Intercellular adhesion … with G4V, Q73T
B4: N175/A: ICAM-1 mutant, glycosylation site N175 replaced with A (protein, UniProt P05362 28-532, looked up, variant N175A)
Intercellular adhesion …: B1 Intercellular adhesion … with G4V, N175A
B5: Q58/H: ICAM-1 substitution mutant, Q58 replaced with H (protein, UniProt P05362 28-532, looked up, variant Q58H)
Intercellular adhesion …: B1 Intercellular adhesion … with G4V, Q58H
B6: Q73/H: ICAM-1 substitution mutant, Q73 to H (protein, UniProt P05362 28-532, looked up, variant Q73H)
Intercellular adhesion …: B1 Intercellular adhesion … with G4V, Q73H
B7: Q27/L: ICAM-1 substitution mutant, Q27 to L (protein, UniProt P05362 28-532, looked up, variant Q27L)
Intercellular adhesion …: B1 Intercellular adhesion … with G4V, Q27L
B8: N118/Q: ICAM-1 domain 2 substitution mutant affecting an N-linked glycosylation site (protein, UniProt P05362 28-532, looked up, variant N118Q)
Intercellular adhesion …: B1 Intercellular adhesion … with G4V, N118Q
B9: E90/K: ICAM-1 substitution mutant, E90 to K (protein, UniProt P05362 28-532, looked up, variant E90K)
Intercellular adhesion …: B1 Intercellular adhesion … with G4V, E90K
B10: E34/A: ICAM-1 substitution mutant, E34 replaced with A (protein, UniProt P05362 28-532, looked up, variant E34A)
Intercellular adhesion …: B1 Intercellular adhesion … with G4V, E34A
B11: N156/E: ICAM-1 domain 2 substitution mutant affecting an N-linked glycosylation site (protein, UniProt P05362 28-532, looked up, variant N156E)
Intercellular adhesion …: B1 Intercellular adhesion … with G4V, N156E
B12: S177/G: ICAM-1 domain 2 substitution mutant affecting an N-linked glycosylation site (protein, UniProt P05362 28-532, looked up, variant S177G)
Intercellular adhesion …: B1 Intercellular adhesion … with G4V, S177G
B13: N103/K: ICAM-1 mutant, replacement of N103 with K (protein, UniProt P05362 28-532, looked up, variant N103K)
Intercellular adhesion …: B1 Intercellular adhesion … with G4V, N103K

Each molecule was assayed against T1, LFA-1 (Homo sapiens, UniProt P05107+P20701) (assay: Adherence of COS cells expressing ICAM-1 or ICAM-1 mutants to plastic-bound purified LFA-1). Details: COS cells expressing ICAM-1 mutant adhering to LFA-1 coated plastic; normalized for percent of cells expressing mutant and for wild type binding; mean.
T1 construct: endogenous in cells
Type: cell-based

T1 sequence (P20701 26-1170): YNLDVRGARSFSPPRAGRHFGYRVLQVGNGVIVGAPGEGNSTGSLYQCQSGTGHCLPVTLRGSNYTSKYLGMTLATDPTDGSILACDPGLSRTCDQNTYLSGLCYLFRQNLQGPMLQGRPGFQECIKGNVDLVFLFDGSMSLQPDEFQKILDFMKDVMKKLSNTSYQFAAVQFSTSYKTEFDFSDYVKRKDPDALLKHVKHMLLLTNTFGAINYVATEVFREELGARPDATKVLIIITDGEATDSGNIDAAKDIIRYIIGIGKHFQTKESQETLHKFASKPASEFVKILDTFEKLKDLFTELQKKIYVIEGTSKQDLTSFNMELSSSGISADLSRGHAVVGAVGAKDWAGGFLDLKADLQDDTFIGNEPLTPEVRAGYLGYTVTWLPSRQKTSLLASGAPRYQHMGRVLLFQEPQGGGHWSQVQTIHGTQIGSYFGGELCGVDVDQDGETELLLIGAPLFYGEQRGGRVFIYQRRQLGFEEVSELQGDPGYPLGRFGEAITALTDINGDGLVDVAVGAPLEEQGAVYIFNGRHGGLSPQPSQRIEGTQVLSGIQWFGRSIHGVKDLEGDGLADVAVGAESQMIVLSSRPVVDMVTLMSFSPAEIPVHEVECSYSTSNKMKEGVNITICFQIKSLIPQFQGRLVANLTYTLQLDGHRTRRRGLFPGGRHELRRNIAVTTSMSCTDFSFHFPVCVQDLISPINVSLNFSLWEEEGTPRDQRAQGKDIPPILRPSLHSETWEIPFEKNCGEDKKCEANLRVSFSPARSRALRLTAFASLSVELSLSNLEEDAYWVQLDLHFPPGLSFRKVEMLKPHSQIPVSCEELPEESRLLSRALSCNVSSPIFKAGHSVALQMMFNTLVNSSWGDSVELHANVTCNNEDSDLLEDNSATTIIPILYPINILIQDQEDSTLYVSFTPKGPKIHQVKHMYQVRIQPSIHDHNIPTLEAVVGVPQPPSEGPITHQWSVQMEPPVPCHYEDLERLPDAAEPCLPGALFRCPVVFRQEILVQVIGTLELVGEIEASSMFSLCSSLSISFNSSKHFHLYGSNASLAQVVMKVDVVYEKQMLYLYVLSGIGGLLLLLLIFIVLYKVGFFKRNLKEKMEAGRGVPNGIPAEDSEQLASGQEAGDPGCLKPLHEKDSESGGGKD
T1 sequence (P05107 23-769): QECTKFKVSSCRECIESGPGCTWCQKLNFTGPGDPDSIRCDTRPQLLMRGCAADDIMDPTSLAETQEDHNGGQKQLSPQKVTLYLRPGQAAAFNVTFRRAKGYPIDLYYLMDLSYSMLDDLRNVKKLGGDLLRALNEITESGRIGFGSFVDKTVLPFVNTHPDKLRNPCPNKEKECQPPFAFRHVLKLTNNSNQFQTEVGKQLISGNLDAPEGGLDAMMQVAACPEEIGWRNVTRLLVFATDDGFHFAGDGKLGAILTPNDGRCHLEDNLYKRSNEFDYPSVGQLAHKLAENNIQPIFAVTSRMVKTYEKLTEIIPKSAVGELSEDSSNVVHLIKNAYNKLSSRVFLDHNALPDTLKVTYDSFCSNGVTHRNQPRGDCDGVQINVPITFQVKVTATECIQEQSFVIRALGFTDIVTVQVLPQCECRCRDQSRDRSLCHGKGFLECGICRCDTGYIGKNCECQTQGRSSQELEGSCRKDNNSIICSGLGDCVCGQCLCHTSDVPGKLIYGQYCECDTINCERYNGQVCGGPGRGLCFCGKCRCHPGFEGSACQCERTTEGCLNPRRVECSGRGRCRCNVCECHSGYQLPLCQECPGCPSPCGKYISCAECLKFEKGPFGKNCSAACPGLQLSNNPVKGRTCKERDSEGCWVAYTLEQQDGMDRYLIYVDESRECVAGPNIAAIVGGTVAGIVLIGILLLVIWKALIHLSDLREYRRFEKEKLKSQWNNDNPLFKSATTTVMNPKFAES

| Molecule | LFA-1 Binding % |
| --- | --- |
| B1 | 64% |
| B2 | 1% |
| B3 | 40% |
| B4 | 67% |
| B5 | 109% |
| B6 | 12% |
| B7 | 37% |
| B8 | 54% |
| B9 | 34% |
| B10 | 0% |
| B11 | 60% |
| B12 | 59% |
| B13 | 12% |

Same assay, conditions: COS cells expressing the mutant, relative to wild type

| Molecule | LFA-1 binding of ICAM-1 mutant (in words) | decrease in LFA-1 binding |
| --- | --- | --- |
| B1 | less able to bind to LFA-1 | – |
| B2 | substantially less capacity to bind LFA-1 | – |
| B3 | – | two-fold |
| B4 | did not appear to substantially effect | approximately two-fold |
| B5 | substantially normal capacity to bind LFA-1 | – |
| B6 | – | 10 fold |
| B8 | – | approximately two-fold |
| B10 | completely eliminates LFA-1 binding; also recorded: totally eliminates LFA-1 binding | – |
| B11 | – | approximately two-fold |
| B12 | – | approximately two-fold |
| B13 | substantially incapable of binding LFA-1 | – |

Same assay, conditions: COS cells expressing the mutant, relative to wild type; listed as E34

| Molecule | LFA-1 binding of ICAM-1 mutant (in words) |
| --- | --- |
| B10 | substantially less capacity to bind LFA-1 |

Each molecule was assayed on HRV14 (assay: Binding of [^35S]-Met labeled HRV14 to COS cells expressing ICAM-1 mutants). Details: 35S met-labeled HRV14 binding to COS cells expressing ICAM-1 mutant; normalized for percent of cells expressing mutant and for wild type binding; mean.
Type: cell-based, human rhinovirus 14

| Molecule | HRV Binding % |
| --- | --- |
| B1 | 30% |
| B2 | 10% |
| B3 | 133% |
| B4 | 129% |
| B5 | 1% |
| B6 | 117% |
| B7 | 57% |
| B8 | 110% |
| B9 | 50% |
| B10 | 66% |
| B11 | 107% |
| B12 | 66% |
| B13 | 13% |

Same assay, conditions: COS cells expressing the mutant, relative to wild type

| Molecule | HRV14 binding of ICAM-1 mutant (in words) | decrease in HRV14 binding |
| --- | --- | --- |
| B5 | virtually eliminated HRV14 binding | – |
| B6 | weak or a non-detectable affect on HRV binding | – |
| B10 | weak or a non-detectable affect on HRV binding | 2 fold |

What follows are molecules tested on CL203 mAb (assay: Indirect immunofluorescence flow cytofluorometry: mAb CL203 binding to COS cells expressing ICAM-1 mutants (SLFI, % WT)). Details: COS cells expressing the mutant, relative to wild type.
Type: cell-based
Description: (§1) For HRV binding studies, COS cells were reseeded in a 24 well plate. One day later, the confluent monolayer was washed twice with 1 ml of RPMI 1640/10 mM MgCl2/25 mM Hepes pH 7.3 (rhinovirus-14 buffer). Transfected COS cells were labeled with 51Cr for binding to LFA-1 coated plastic as previously described (Staunton, D. E., et al., Nature 339:61-64 (1989). Immunoprecipitation and indirect immunofluorescence was performed using ICAM-1 MAb RR1/1 (Rothlein, R., et al., J. Immunol. 137:1270-1274 (1986)), R6.5 (Rothlein, R., et al., J. Immunol. 141:1665-1669 (1988)), LB-1 (Clark, E. A., et al., Hum. Immunol. 16:100-113 (1986)) and CL203 (Maio, M., J. Immunol. 143:181-188 (1989), all of which references are incorporated herein by reference).
(§2) Binding of RR1, R6.5, and LB-2 mAb was normalized to binding of CL203 mAb using Specific Linear Fluorescence Intensity (SLFI): % CL203=(mAbSLFI)×100)/CL203mABSLFI
(§3) In Table 25, the notation for the mutations uses the one-letter code for the wild-type sequence followed by a slash and the one-letter code for the corresponding mutant sequence. The position of the first amino acid within the sequence is indicated. Wild type residues precede the slash followed by the residues they were substituted for in the mutant. COS cells expressing ICAM-1 mutants were tested for adherence to LFA-1 coated plastic and for binding 35S met-labeled HRV14. LFA-1 and HRV14 binding is normalized for percent of cells expressing mutant ICAM-1 and for binding of wild type expressing cells. Binding is presented as mean and standard error (SE) for multiple experiments (n). Effects of two-fold or greater were reproducible in LFA-1, HRV and mAb binding assays and thus considered significant (bold and underlined). The specific linear fluorescence intensity (SLFI) of CL203 for each mutant is normalized to that of wild type CL203 SLFI (% WT) as discussed above. The SLFI of RR1/1, R6.5 and LB-2 SLFI is normalized to the CL203 SLFI of the mutant (% CL203) as described above.

| Molecule | binding of MAb CL203 (in words) |
| --- | --- |
| B7 | specifically reduced level of expression |
| B9 | specifically reduced level of expression |

Same assay, conditions: SLFI of CL203 for mutant normalized to wild type CL203 SLFI; level of expression

| Molecule | Cl203 % WT (SLFI) |
| --- | --- |
| B1 | 111 % WT |
| B2 | 202 % WT |
| B3 | 218 % WT |
| B4 | 80 % WT |
| B5 | 135 % WT |
| B6 | 139 % WT |
| B7 | 33 % WT |
| B8 | 139 % WT |
| B9 | 29 % WT |
| B10 | 132 % WT |
| B11 | 182 % WT |
| B12 | 87 % WT |
| B13 | 91 % WT |

Each molecule was assayed on RR1/1 mAb (assay: Indirect immunofluorescence flow cytofluorometry: mAb RR1/1 binding to COS cells expressing ICAM-1 mutants (SLFI, % CL203)). Details: SLFI normalized to CL203 SLFI of the mutant.
Type: cell-based
Description: as §1, §2, §3

| Molecule | SLFI (% CL203) RR/1 |
| --- | --- |
| B1 | 47 % CL203 |
| B2 | 4 % CL203 |
| B3 | 71 % CL203 |
| B4 | 162 % CL203 |
| B5 | 93 % CL203 |
| B6 | 21 % CL203 |
| B7 | 75 % CL203 |
| B8 | 93 % CL203 |
| B9 | 100 % CL203 |
| B10 | 142 % CL203 |
| B11 | 84 % CL203 |
| B12 | 136 % CL203 |
| B13 | 17 % CL203 |

These molecules were tested on R6.5 mAb (assay: Indirect immunofluorescence flow cytofluorometry: mAb R6.5 binding to COS cells expressing ICAM-1 mutants (SLFI, % CL203)). Details: SLFI normalized to CL203 SLFI of the mutant.
Type: cell-based
Description: as §1, §2, §3

| Molecule | SLFI (% CL203) R6.5 |
| --- | --- |
| B1 | 73 % CL203 |
| B2 | 48 % CL203 |
| B3 | 86 % CL203 |
| B4 | 175 % CL203 |
| B5 | 107 % CL203 |
| B6 | 80 % CL203 |
| B7 | 75 % CL203 |
| B8 | 85 % CL203 |
| B9 | 123 % CL203 |
| B10 | 150 % CL203 |
| B11 | 95 % CL203 |
| B12 | 118 % CL203 |
| B13 | 60 % CL203 |

The molecules below were run on LB-2 mAb (assay: Indirect immunofluorescence flow cytofluorometry: mAb LB-2 binding to COS cells expressing ICAM-1 mutants (SLFI, % CL203)). Details: SLFI normalized to CL203 SLFI of the mutant.
Type: cell-based
Description: as §1, §2, §3

| Molecule | SLFI (% CL203) LB-2 |
| --- | --- |
| B1 | 58 % CL203 |
| B2 | 4 % CL203 |
| B3 | 114 % CL203 |
| B4 | 150 % CL203 |
| B5 | 93 % CL203 |
| B6 | 80 % CL203 |
| B7 | 125 % CL203 |
| B8 | 93 % CL203 |
| B9 | 108 % CL203 |
| B10 | 142 % CL203 |
| B11 | 95 % CL203 |
| B12 | 90 % CL203 |
| B13 | 22 % CL203 |
